From article PMC4127636 (The Biochemical journal, 2012)

T1: YeiG (Escherichia coli, UniProt P33018)
T1 sequence (P33018 1-278): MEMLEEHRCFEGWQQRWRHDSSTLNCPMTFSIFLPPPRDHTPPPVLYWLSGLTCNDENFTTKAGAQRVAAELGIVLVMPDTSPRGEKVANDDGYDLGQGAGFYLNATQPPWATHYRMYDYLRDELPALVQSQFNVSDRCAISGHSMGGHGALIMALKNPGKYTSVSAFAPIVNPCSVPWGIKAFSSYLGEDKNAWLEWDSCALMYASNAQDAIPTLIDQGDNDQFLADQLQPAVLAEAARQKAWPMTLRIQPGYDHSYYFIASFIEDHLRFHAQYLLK

T2: BioH (Escherichia coli, UniProt P13001)
T2 sequence (P13001 1-256): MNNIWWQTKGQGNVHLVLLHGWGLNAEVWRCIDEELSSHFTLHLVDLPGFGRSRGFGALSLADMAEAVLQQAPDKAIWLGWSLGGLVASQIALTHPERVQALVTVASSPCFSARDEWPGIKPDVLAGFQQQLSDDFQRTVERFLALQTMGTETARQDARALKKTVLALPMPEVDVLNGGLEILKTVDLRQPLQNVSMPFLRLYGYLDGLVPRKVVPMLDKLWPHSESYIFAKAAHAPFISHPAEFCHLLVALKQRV

T3: Atu1476 (Agrobacterium fabrum, UniProt A9CJ11)
T3 sequence (A9CJ11 1-277): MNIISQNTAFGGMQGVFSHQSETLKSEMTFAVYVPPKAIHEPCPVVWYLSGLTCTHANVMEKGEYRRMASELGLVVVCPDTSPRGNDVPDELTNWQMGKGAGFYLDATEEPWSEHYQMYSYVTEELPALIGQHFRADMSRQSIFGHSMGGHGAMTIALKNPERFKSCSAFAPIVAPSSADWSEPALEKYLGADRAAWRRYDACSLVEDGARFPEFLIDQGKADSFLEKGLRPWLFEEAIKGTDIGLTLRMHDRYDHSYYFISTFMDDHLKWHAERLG


Columns and labels:
YeiG = molecular target: T1, YeiG; test: esterase activity, temperature profile; assay type: biochemical; settings: 50 mM potassium Hepes pH 8.0; temperature varied
BioH = molecular target: T2, BioH; test: esterase activity, temperature profile; assay type: biochemical; settings: 50 mM potassium Hepes pH 8.0; temperature varied
Atu1476 = molecular target: T3, Atu1476; test: esterase activity, temperature profile; assay type: biochemical; settings: 50 mM potassium Hepes pH 8.0; temperature varied
[1] = substrate: CC(=O)Oc1ccc([N+](=O)[O-])cc1; test: spectrophotometric esterase assay; assay type: biochemical, Oleispira antarctica; settings: no salt, 50 mM potassium Hepes pH 8.0, 20°C
[2] = substrate: CC(=O)Oc1cccc2ccccc12; test: spectrophotometric esterase assay; assay type: biochemical, Oleispira antarctica; settings: 50 mM potassium Hepes pH 8.0, 20°C
[3] = substrate: CCC(=O)Oc1ccc([N+](=O)[O-])cc1; test: spectrophotometric esterase assay; assay type: biochemical, Oleispira antarctica; settings: 0.4 M NaCl, 50 mM potassium Hepes pH 8.0, 20°C
[4] = substrate: CCC(=O)Oc1cccc2ccccc12; test: spectrophotometric esterase assay; assay type: biochemical, Oleispira antarctica; settings: 0.4 M NaCl, 50 mM potassium Hepes pH 8.0, 20°C
[5] = substrate: CCCC(=O)Oc1ccc([N+](=O)[O-])cc1; test: spectrophotometric esterase assay; assay type: biochemical, Oleispira antarctica; settings: 0.4 M NaCl, 50 mM potassium Hepes pH 8.0, 20°C
[6] = substrate: CCCC(=O)Oc1cccc2ccccc12; test: spectrophotometric esterase assay; assay type: biochemical, Oleispira antarctica; settings: 0.4 M NaCl, 50 mM potassium Hepes pH 8.0, 20°C

Molecule	Km ([2]; 0.4 M NaCl)	kcat ([2]; 0.4 M NaCl)	kcat/Km ([2]; 0.4 M NaCl)	also measured
CCC(=O)Oc1ccc([N+](=O)[O-])cc1 [pNP-propionate]	–	–	–	esterase activity, temperature profile (YeiG): using α-naphthyl acetate (A), pNP-butyrate (B and D) and pNP-propionate (C) as substrates
CCCC(=O)Oc1ccc([N+](=O)[O-])cc1 [pNP-butyrate]	–	–	–	esterase activity, temperature profile (BioH): using α-naphthyl acetate (A), pNP-butyrate (B and D) and pNP-propionate (C) as substrates; esterase activity, temperature profile (Atu1476): using α-naphthyl acetate (A), pNP-butyrate (B and D) and pNP-propionate (C) as substrates
OLEI01171 (Oleispira antarctica) (protein) MSIENLSSNKSFGGWHKQYSHVSNTLNCAMRFAIYLPPQASTGAKVPVLYWLSGLTCSDENFMQKAGAQRLAAELGIAIVAPDTSPRGEGVADDEGYDLGQGAGFYVNATQAPWNRHYQMYDYVVNELPELIESMFPVSDKRAIAGHSMGGHGALTIALRNPERYQSVSAFSPINNPVNCPWGQKAFTAYLGKDTDTWREYDASLLMRAAKQYVPALVDQGEADNFLAEQLKPEVLEAAASSNNYPLELRSHEGYDHSYYFIASFIEDHLRFHSNYLNA	–	–	–	Km [1]: 700 ± 100 µM; kcat [1]: 0.2 ± 0.03 s⁻¹; kcat/Km [1]: 300 M⁻¹ s⁻¹; Km ([2]; no salt): 400 ± 30 µM; kcat ([2]; no salt): 0.8 ± 0.02 s⁻¹; kcat/Km ([2]; no salt): 2000 M⁻¹ s⁻¹; Km [3]: 700 ± 200 µM; kcat [3]: 0.3 ± 0.03 s⁻¹; kcat/Km [3]: 400 M⁻¹ s⁻¹; Km [4]: 200 ± 30 µM; kcat [4]: 1.5 ± 0.1 s⁻¹; kcat/Km [4]: 8000 M⁻¹ s⁻¹; Km [5]: 900 ± 300 µM; kcat [5]: 0.2 ± 0.03 s⁻¹; kcat/Km [5]: 200 M⁻¹ s⁻¹; Km [6]: 200 ± 40 µM; kcat [6]: 0.06 ± 0.01 s⁻¹; kcat/Km [6]: 300 M⁻¹ s⁻¹
OLEI01171 (Oleispira antarctica; N62A) (protein) MSIENLSSNKSFGGWHKQYSHVSNTLNCAMRFAIYLPPQASTGAKVPVLYWLSGLTCSDEAFMQKAGAQRLAAELGIAIVAPDTSPRGEGVADDEGYDLGQGAGFYVNATQAPWNRHYQMYDYVVNELPELIESMFPVSDKRAIAGHSMGGHGALTIALRNPERYQSVSAFSPINNPVNCPWGQKAFTAYLGKDTDTWREYDASLLMRAAKQYVPALVDQGEADNFLAEQLKPEVLEAAASSNNYPLELRSHEGYDHSYYFIASFIEDHLRFHSNYLNA	500 ± 100 µM	1.8 ± 0.2 s⁻¹	4000 M⁻¹ s⁻¹	–
OLEI01171 (Oleispira antarctica; N226A) (protein) MSIENLSSNKSFGGWHKQYSHVSNTLNCAMRFAIYLPPQASTGAKVPVLYWLSGLTCSDENFMQKAGAQRLAAELGIAIVAPDTSPRGEGVADDEGYDLGQGAGFYVNATQAPWNRHYQMYDYVVNELPELIESMFPVSDKRAIAGHSMGGHGALTIALRNPERYQSVSAFSPINNPVNCPWGQKAFTAYLGKDTDTWREYDASLLMRAAKQYVPALVDQGEADAFLAEQLKPEVLEAAASSNNYPLELRSHEGYDHSYYFIASFIEDHLRFHSNYLNA	500 ± 100 µM	1.7 ± 0.1 s⁻¹	3000 M⁻¹ s⁻¹	–
OLEI01171 (Oleispira antarctica; N226K) (protein) MSIENLSSNKSFGGWHKQYSHVSNTLNCAMRFAIYLPPQASTGAKVPVLYWLSGLTCSDENFMQKAGAQRLAAELGIAIVAPDTSPRGEGVADDEGYDLGQGAGFYVNATQAPWNRHYQMYDYVVNELPELIESMFPVSDKRAIAGHSMGGHGALTIALRNPERYQSVSAFSPINNPVNCPWGQKAFTAYLGKDTDTWREYDASLLMRAAKQYVPALVDQGEADKFLAEQLKPEVLEAAASSNNYPLELRSHEGYDHSYYFIASFIEDHLRFHSNYLNA	400 ± 100 µM	3 ± 0.2 s⁻¹	8000 M⁻¹ s⁻¹	–
OLEI01171 (Oleispira antarctica; S59A) (protein) MSIENLSSNKSFGGWHKQYSHVSNTLNCAMRFAIYLPPQASTGAKVPVLYWLSGLTCADENFMQKAGAQRLAAELGIAIVAPDTSPRGEGVADDEGYDLGQGAGFYVNATQAPWNRHYQMYDYVVNELPELIESMFPVSDKRAIAGHSMGGHGALTIALRNPERYQSVSAFSPINNPVNCPWGQKAFTAYLGKDTDTWREYDASLLMRAAKQYVPALVDQGEADNFLAEQLKPEVLEAAASSNNYPLELRSHEGYDHSYYFIASFIEDHLRFHSNYLNA	400 ± 10 µM	0.8 ± 0.1 s⁻¹	2000 M⁻¹ s⁻¹	–
OLEI01171 (Oleispira antarctica; A224K) (protein) MSIENLSSNKSFGGWHKQYSHVSNTLNCAMRFAIYLPPQASTGAKVPVLYWLSGLTCSDENFMQKAGAQRLAAELGIAIVAPDTSPRGEGVADDEGYDLGQGAGFYVNATQAPWNRHYQMYDYVVNELPELIESMFPVSDKRAIAGHSMGGHGALTIALRNPERYQSVSAFSPINNPVNCPWGQKAFTAYLGKDTDTWREYDASLLMRAAKQYVPALVDQGEKDNFLAEQLKPEVLEAAASSNNYPLELRSHEGYDHSYYFIASFIEDHLRFHSNYLNA	300 ± 40 µM	1.1 ± 0.1 s⁻¹	4000 M⁻¹ s⁻¹	–
OLEI01171 (Oleispira antarctica; K66A) (protein) MSIENLSSNKSFGGWHKQYSHVSNTLNCAMRFAIYLPPQASTGAKVPVLYWLSGLTCSDENFMQAAGAQRLAAELGIAIVAPDTSPRGEGVADDEGYDLGQGAGFYVNATQAPWNRHYQMYDYVVNELPELIESMFPVSDKRAIAGHSMGGHGALTIALRNPERYQSVSAFSPINNPVNCPWGQKAFTAYLGKDTDTWREYDASLLMRAAKQYVPALVDQGEADNFLAEQLKPEVLEAAASSNNYPLELRSHEGYDHSYYFIASFIEDHLRFHSNYLNA	400 ± 10 µM	1.2 ± 0.1 s⁻¹	3000 M⁻¹ s⁻¹	–
OLEI01171 (Oleispira antarctica; C58A) (protein) MSIENLSSNKSFGGWHKQYSHVSNTLNCAMRFAIYLPPQASTGAKVPVLYWLSGLTASDENFMQKAGAQRLAAELGIAIVAPDTSPRGEGVADDEGYDLGQGAGFYVNATQAPWNRHYQMYDYVVNELPELIESMFPVSDKRAIAGHSMGGHGALTIALRNPERYQSVSAFSPINNPVNCPWGQKAFTAYLGKDTDTWREYDASLLMRAAKQYVPALVDQGEADNFLAEQLKPEVLEAAASSNNYPLELRSHEGYDHSYYFIASFIEDHLRFHSNYLNA	200 ± 10 µM	0.9 ± 0.02 s⁻¹	5000 M⁻¹ s⁻¹	–
OLEI01171 (Oleispira antarctica; Y98A) (protein) MSIENLSSNKSFGGWHKQYSHVSNTLNCAMRFAIYLPPQASTGAKVPVLYWLSGLTCSDENFMQKAGAQRLAAELGIAIVAPDTSPRGEGVADDEGADLGQGAGFYVNATQAPWNRHYQMYDYVVNELPELIESMFPVSDKRAIAGHSMGGHGALTIALRNPERYQSVSAFSPINNPVNCPWGQKAFTAYLGKDTDTWREYDASLLMRAAKQYVPALVDQGEADNFLAEQLKPEVLEAAASSNNYPLELRSHEGYDHSYYFIASFIEDHLRFHSNYLNA	1700 ± 300 µM	2.9 ± 0.3 s⁻¹	2000 M⁻¹ s⁻¹	–
OLEI01171 (Oleispira antarctica; S173A) (protein) MSIENLSSNKSFGGWHKQYSHVSNTLNCAMRFAIYLPPQASTGAKVPVLYWLSGLTCSDENFMQKAGAQRLAAELGIAIVAPDTSPRGEGVADDEGYDLGQGAGFYVNATQAPWNRHYQMYDYVVNELPELIESMFPVSDKRAIAGHSMGGHGALTIALRNPERYQSVSAFAPINNPVNCPWGQKAFTAYLGKDTDTWREYDASLLMRAAKQYVPALVDQGEADNFLAEQLKPEVLEAAASSNNYPLELRSHEGYDHSYYFIASFIEDHLRFHSNYLNA	600 ± 100 µM	5.3 ± 0.3 s⁻¹	9000 M⁻¹ s⁻¹	–
